Legend:
CD40LG = molecular target: T1, CD40LG (UniProt P29965 1-261); assay: flow cytometry, transfected HEK293 cells
T1 construct: whole, on cells; also called HEK293-CD40LG
T1 sequence (looked up): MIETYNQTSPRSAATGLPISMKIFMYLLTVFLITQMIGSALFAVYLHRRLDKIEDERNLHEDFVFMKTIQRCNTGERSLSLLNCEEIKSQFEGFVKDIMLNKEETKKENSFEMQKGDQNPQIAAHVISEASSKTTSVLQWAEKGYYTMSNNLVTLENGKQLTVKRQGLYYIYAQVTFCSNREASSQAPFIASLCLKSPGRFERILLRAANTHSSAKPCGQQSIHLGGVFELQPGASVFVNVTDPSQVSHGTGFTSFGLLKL
From the text: (§1) After that, HEK293 cells were transfected with commercial MMP16 (protein information can be found under Uniprot P51512), CD40LG (protein information can be found under Uniprot P29965), CD147 (protein information can be found under Uniprot P35612), TSPAN4 (protein information can be found under Uniprot 014817), and TSPAN12 (protein information can be found under Uniprot 095859) plasmids for further verification of the binding of PR005565, PR006275 and PR006276 to these proteins. […] However, the binding values of PR005565, PR006275 and PR006276 to MMP16, CD40LG, CD147, TSPAN4 and TSPAN12 after transfection of HEK293 cells were all consistent with the signal values of HEK293 cells themselves. Thus, PR005565, PR006275 and PR006276 had no non-specific binding to MMP16, CD40LG, CD147, TSPAN4 and TSPAN12 proteins (see Table 50).

TSPAN12-FLAG = molecular target: T2, TSPAN12-FLAG (UniProt O95859 1-305); assay: flow cytometry, transfected HEK293 cells
T2 construct: whole, on cells; order of protein and tag unknown; also called HEK293-TSPAN12; not shown: FLAG tag
T2 sequence (looked up): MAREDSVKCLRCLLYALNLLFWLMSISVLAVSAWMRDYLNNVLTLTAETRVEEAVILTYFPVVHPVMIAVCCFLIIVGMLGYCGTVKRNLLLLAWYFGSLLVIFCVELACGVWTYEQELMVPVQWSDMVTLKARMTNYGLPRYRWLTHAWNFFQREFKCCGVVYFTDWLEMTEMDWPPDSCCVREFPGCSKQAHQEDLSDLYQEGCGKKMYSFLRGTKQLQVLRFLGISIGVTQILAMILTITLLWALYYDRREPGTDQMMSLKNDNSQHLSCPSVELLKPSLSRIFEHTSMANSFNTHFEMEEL
From the text: as §1

TSPAN4-FLAG [1] = molecular target: T3, TSPAN4-FLAG (UniProt O14817 1-238, limits assumed); assay: flow cytometry, transfected HEK293 cells
T3 construct: whole, on cells; order of protein and tag unknown; also called HEK293-TSPAN4; not shown: FLAG tag
T3 sequence (looked up): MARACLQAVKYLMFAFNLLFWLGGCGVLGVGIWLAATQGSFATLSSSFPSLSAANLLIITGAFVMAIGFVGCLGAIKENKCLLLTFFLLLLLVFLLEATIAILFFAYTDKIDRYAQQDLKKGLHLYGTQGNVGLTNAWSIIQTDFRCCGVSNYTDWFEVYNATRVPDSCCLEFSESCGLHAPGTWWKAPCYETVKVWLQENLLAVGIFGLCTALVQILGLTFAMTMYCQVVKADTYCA
From the text: as §1

MMP16 = molecular target: T4, MMP16 (UniProt P51512 120-607); assay: flow cytometry, transfected HEK293 cells
T4 construct: whole, on cells; also called HEK293-MMP16
T4 sequence (P51512 120-607): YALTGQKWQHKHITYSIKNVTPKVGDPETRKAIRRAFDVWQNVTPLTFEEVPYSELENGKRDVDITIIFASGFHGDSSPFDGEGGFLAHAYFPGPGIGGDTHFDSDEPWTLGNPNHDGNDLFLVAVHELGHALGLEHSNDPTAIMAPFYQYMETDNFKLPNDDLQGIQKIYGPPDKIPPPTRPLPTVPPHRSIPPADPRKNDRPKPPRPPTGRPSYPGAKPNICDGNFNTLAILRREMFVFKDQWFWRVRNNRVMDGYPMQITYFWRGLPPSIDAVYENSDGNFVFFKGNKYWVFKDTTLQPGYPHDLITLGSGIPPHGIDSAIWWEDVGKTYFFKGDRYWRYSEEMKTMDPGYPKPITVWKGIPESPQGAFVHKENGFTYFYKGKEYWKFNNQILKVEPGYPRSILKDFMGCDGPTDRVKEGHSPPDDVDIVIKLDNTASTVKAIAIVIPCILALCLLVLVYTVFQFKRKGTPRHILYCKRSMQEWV
From the text: as §1

TSPAN4-FLAG [2] = molecular target: T3, TSPAN4-FLAG; assay: flow cytometry, HEK293-TSPAN4 cells
human CCR8 [3] = molecular target: T5, human CCR8 (human, UniProt P51685 1-355); assay: FACS, CHO-K1-hCCR8 cells
T5 construct: whole, on cells; construct used for the overexpressing cell lines is not described; also called hCCR8
T5 sequence (P51685 whole entry): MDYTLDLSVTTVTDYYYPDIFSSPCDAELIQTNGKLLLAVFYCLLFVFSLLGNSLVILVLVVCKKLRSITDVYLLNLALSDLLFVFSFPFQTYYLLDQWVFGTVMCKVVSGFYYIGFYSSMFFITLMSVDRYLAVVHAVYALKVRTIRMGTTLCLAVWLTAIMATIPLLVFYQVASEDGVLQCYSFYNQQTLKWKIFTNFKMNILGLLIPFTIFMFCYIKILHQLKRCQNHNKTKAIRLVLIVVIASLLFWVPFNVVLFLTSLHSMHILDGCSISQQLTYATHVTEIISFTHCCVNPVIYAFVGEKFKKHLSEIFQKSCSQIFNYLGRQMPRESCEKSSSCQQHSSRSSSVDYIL
Outline: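 Flow cytometry measures antibody binding to the overexpressing cells. These are first incubated at 4 °C for 1 h with test antibody titrated 5-fold down from 200 nM, then for 40 min with secondary antibody diluted 1:1000.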

human CCR8 [4] = molecular target: T5, human CCR8; assay: KinExA, cell line overexpressing human CCR8; human CCR8 cell line
Experimental: To 200 mg of PMMA hard beads was added 30 μg of Goat Anti-Human IgG Fc antibody, and the mixture was supplemented with a coating solution to 1.0 mL, with a buffer composition of 1×PBS, pH7.4, to ensure that the beads were completely suspended in the solution. After being spun at room temperature for 2 h, the beads were either allowed to settle naturally or centrifuged briefly at low speed, and the supernatant was removed. 1 mL of blocking buffer (1×PBS, pH7.4, containing 10 mg/mL BSA) was added to ensure that the beads were resuspended in the blocking solution, and the beads were spun at room temperature for 1 h. An appropriate concentration of PR005565, PR006155 or PR006166 was used as the 100% signal value, and PBS blank was used as the background value. The net signal values were detected using 0.5 μg/mL Alexa Fluor® 647 Goat Anti-Human IgG. The cell line overexpressing human or monkey CCR8 was collected by centrifugation at 1500 g for 5 min, washed 2 times with 2 PBS and centrifuged at 350 g. The cells were collected in a 1.5 mL centrifuge tube. 10 mL of 0.2 nM PR005565, PR006155 or PR006166 solution was prepared. The total cells were supplemented with 0.2 nM PR005565, PR006155 or PR006166 solution to 0.82 mL, and diluted in a 2-fold gradient with 0.2 nM PR005565, PR006155 or PR006166 as a buffer. […]

B1: PR005565 (antibody, human IgG1, kappa)
heavy: not shown
light: DIVMTQSPLSLPVTLGQPASISCRSSKSLLHSNAKIYLYWFQQRPGQSPRLLIYRMSNLASGVPDRFSGSGSGTDFTLKISRVEAEDVGVYYCMQHLEYPLTFGQGTKLEIKRTVAAPSVFIFPPSDEQLKSGTASVVCLLNNFYPREAKVQWKVDNALQSGNSQESVTEQDSKDSTYSLSSTLTLSKADYEKHKVYACEVTHQGLSSPVTKSFNRGEC
notes: IgG1 constant region; same VH/VL as PR004666
binding result (CD40LG): no binding | binding result (TSPAN12-FLAG): no binding | binding result (TSPAN4-FLAG [1]): no binding | binding result (MMP16): no binding | MFI (TSPAN4-FLAG [2]): 207 | EC50 (human CCR8 [3]): 420 pM | Kd (human CCR8 [4]): 130 pM

— patent US20240132603A1 (HARBOUR BIOMED US, published 2024)
